According to patent publication US20230203158A1 (FLAGSHIP PIONEERING INNOVATIONS VII, published 2023):

Experiments:
[1] = molecular target: IL-10 receptor of HEK-BLUE IL-10 cells (the cells express all the components of the IL-10 signaling pathway); experiment: cell-based or functional assay
[2] = molecular target: T1, recombinant His-tagged human IL-10Ra (Creative Biomart) (human, UniProt Q13651 22-235); experiment: ELISA, His-tagged human IL-10Ra coated at 1 µg/mL
T1 construct: also called IL-10 receptor alpha; not shown: His tag
T1 sequence (looked up): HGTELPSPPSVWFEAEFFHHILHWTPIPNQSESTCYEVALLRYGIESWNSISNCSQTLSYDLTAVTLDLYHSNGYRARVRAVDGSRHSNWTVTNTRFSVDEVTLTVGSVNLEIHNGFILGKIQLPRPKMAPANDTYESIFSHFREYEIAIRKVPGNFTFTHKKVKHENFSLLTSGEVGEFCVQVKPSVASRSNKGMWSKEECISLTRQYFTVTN
Description: To test the binding of the IL-10/anti-DSG1 ANDbodies to IL-10 receptor alpha (IL-10Ra) by ELISA, recombinant His-tagged human IL-10Ra (Creative Biomart) was coated on NUNC-IMMUNO™ MAXISORP™ ELISA plates at 1 μg/mL concentration overnight. The next day, coated antigen was removed and the wells were blocked with 1% IgG-free BSA followed by incubation with 11 three-fold serially diluted anti-IL-10/anti-DSG1 ANDbodies (as provided above) with a starting concentration of 30 μg/mL. Bound antibody was detected with peroxidase-conjugated anti-human IgG antibodies with TMB and acid stop reagents.

[3] = molecular target: T2, Murine DSG1 (NCBI accession NP_034209.2) with a c-Myc epitope tag at the C terminus, transiently expressed in … (mouse, UniProt Q61495 50-1057); experiment: flow cytometry on RAW 264.7 cells transiently expressing murine DSG1
T2 construct: whole, on cells; also called mouse DSG1; murine desmoglein-1
T2 sequence (looked up): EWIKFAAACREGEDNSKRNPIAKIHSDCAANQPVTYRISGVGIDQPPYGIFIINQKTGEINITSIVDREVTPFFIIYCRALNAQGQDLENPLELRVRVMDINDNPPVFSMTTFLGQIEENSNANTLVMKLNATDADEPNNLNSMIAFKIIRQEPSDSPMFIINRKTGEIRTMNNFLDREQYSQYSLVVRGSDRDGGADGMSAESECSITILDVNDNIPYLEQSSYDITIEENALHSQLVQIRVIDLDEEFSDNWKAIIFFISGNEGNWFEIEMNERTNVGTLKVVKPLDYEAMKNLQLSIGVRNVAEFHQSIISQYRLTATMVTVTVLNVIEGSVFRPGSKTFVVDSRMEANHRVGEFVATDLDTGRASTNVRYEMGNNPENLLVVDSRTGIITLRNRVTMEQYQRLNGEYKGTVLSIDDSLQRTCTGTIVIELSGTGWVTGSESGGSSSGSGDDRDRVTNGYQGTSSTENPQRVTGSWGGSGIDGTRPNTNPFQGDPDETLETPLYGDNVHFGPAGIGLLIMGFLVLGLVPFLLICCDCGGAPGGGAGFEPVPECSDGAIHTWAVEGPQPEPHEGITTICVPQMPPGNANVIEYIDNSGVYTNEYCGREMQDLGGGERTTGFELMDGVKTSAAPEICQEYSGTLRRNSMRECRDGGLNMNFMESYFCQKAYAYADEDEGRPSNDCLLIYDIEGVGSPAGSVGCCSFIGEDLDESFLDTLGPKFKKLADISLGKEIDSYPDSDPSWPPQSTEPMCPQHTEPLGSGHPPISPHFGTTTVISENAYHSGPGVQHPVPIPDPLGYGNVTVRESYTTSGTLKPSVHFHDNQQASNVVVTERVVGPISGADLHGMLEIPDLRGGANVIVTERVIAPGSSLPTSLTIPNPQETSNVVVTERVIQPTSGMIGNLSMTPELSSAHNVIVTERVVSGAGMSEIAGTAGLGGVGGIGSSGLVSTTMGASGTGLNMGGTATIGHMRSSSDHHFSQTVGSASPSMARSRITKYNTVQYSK
Source text: Murine DSG1 (NCBI accession NP_034209.2) with a c-Myc epitope tag at the protein C terminus was transiently expressed in RAW 264.7 cells using LIPOFECTAMINE™ 3000 (ThermoFisher Scientific) according to the manufacturer's protocol.

Row | EC50 (pM), HEK-BLUE IL-10 signaling assay (SEAP) [1] [pM] | binding result [2] | binding result [3] | Binder
1 | 50 | binds |  | IL-10 Fc (Creative Biomart IL10-326H), recombinant human IL-10 fused to a human Fc domain (Fc fusion, UniProt P22301 19-178, looked up, also called positive control IL-10 Fc; hIL-10 Fc fusion; not shown: human Fc domain and any linker of the bought product) SPGQGTQSENSCTHFPGNLPNMLRDLRDAFSRVKTFFQMKDQLDNLLLKESLLEDFKGYLGCQALSEMIQFYLEEVMPQAENQDPDIKAHVNSLGENLKTLRLRLRRCHRFLPCENKSKAVEQVKNAFNKLQEKGIYKAMSEFDIFINYIEAYMTMKIRN
2 |  |  | binds | PRO004 (anti-DSG1 antibody 3-07/1e on a human IgG1 LALA-PG backbone, lambda light chain) (antibody, V domains shown, human IgG1 with L234A, L235A, P329G) VH: QVQLVQSGGGLVQPGGSLRVSCAASGFTSNIFWMSWVRQAPGKGLEWVANIDEDGSEKNYVDSVKGRFTISRDNAKNSLYLQMNSLRAEDTAVYYCARESFYYGSGTYFDFWGQGTLVTVSS VL: ELVVTQPPSVSGAPGQRVTISCTGSSSNIGAGYDVHWYQQLPGTAPKLLIYGNKNRPSGVPDRFSGSKSGTSASLAITGLRAEDEADYYCQSFDSSLGWVFGGGTQLTVLG
